Our source for the Kd values is publication PMC10786891, “Massively parallel profiling of RNA-targeting CRISPR-Cas13d”.

T1: EsCas13d, nuclease-dead (Eubacterium siraeum, UniProt B0MS50, R295A;H300A;R849A;H854A)
T1 sequence: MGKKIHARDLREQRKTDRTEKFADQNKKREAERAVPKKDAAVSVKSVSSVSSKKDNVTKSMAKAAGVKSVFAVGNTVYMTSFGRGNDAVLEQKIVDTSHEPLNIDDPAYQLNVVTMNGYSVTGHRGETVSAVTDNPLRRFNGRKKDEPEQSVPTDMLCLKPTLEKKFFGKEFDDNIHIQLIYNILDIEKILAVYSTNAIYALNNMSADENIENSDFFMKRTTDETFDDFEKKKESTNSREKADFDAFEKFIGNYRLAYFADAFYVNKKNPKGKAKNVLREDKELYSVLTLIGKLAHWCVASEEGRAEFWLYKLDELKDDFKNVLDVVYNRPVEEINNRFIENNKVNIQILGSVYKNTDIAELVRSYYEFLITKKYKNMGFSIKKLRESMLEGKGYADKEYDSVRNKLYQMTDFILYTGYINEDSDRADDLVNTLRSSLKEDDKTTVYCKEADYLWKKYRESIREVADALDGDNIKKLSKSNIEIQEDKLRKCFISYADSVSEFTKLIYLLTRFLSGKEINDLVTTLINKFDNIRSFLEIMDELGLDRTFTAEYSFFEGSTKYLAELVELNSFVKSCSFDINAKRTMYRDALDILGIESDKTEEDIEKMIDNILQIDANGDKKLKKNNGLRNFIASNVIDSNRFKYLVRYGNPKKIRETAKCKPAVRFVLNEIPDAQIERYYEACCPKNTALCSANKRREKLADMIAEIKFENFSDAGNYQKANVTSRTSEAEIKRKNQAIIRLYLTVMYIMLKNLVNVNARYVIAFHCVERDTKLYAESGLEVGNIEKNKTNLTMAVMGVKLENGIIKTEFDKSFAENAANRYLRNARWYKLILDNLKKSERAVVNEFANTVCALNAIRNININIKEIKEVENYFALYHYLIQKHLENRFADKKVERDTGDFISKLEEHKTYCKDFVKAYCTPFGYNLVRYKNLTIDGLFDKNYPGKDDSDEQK

B1: target 3 C1G,G4C (mixed)
RNA 1: CACCCGUGCAAAAUUGCAGGGGUCUAAAACGACCUGAAUAUUUCAGAUCAAA
RNA 2: GGGAAUGGAUCCACAUCUACGAAUUCGUUUUUGAUCUGAAAUAUUCACGUGUGCAGAUCGGAAGAGCACACGU
B2: target 3 G3C,A12G (mixed)
RNA 1: CACCCGUGCAAAAUUGCAGGGGUCUAAAACGACCUGAAUAUUUCAGAUCAAA
RNA 2: GGGAAUGGAUCCACAUCUACGAAUUCGUUUUUGAUCUGAGAUAUUCAGCUCUGCAGAUCGGAAGAGCACACGU
B3: target 3 insU 3' of 3,insG 3' of 1 (mixed)
RNA 1: CACCCGUGCAAAAUUGCAGGGGUCUAAAACGACCUGAAUAUUUCAGAUCAAA
RNA 2: GGGAAUGGAUCCACAUCUACGAAUUCGUUUUUGAUCUGAAAUAUUCAGGUUCGUGCAGAUCGGAAGAGCACACGU
B4: target 3 insU 3' of 16,insG 3' of 1 (mixed)
RNA 1: CACCCGUGCAAAAUUGCAGGGGUCUAAAACGACCUGAAUAUUUCAGAUCAAA
RNA 2: GGGAAUGGAUCCACAUCUACGAAUUCGUUUUUGAUCUUGAAAUAUUCAGGUCGUGCAGAUCGGAAGAGCACACGU
B5: target 3 insU 3' of 3,insU 3' of 1 (mixed)
RNA 1: CACCCGUGCAAAAUUGCAGGGGUCUAAAACGACCUGAAUAUUUCAGAUCAAA
RNA 2: GGGAAUGGAUCCACAUCUACGAAUUCGUUUUUGAUCUGAAAUAUUCAGGUUCUUGCAGAUCGGAAGAGCACACGU
B6: target 3 C6G (mixed)
RNA 1: CACCCGUGCAAAAUUGCAGGGGUCUAAAACGACCUGAAUAUUUCAGAUCAAA
RNA 2: GGGAAUGGAUCCACAUCUACGAAUUCGUUUUUGAUCUGAAAUAUUGAGGUCUGCAGAUCGGAAGAGCACACGU
B7: target 3 insC 3' of 22,insU 3' of 4 (mixed)
RNA 1: CACCCGUGCAAAAUUGCAGGGGUCUAAAACGACCUGAAUAUUUCAGAUCAAA
RNA 2: GGGAAUGGAUCCACAUCUACGAAUUCGUUUCUUGAUCUGAAAUAUUCAGUGUCUGCAGAUCGGAAGAGCACACGU
B8: target 3 C6U,C16U (mixed)
RNA 1: CACCCGUGCAAAAUUGCAGGGGUCUAAAACGACCUGAAUAUUUCAGAUCAAA
RNA 2: GGGAAUGGAUCCACAUCUACGAAUUCGUUUUUGAUUUGAAAUAUUUAGGUCUGCAGAUCGGAAGAGCACACGU
B9: target 3 insG 3' of 22,insA 3' of 22 (mixed)
RNA 1: CACCCGUGCAAAAUUGCAGGGGUCUAAAACGACCUGAAUAUUUCAGAUCAAA
RNA 2: GGGAAUGGAUCCACAUCUACGAAUUCGUUUGAUUGAUCUGAAAUAUUCAGGUCUGCAGAUCGGAAGAGCACACGU
B10: target 3 insC 3' of 4,insA 3' of 4 (mixed)
RNA 1: CACCCGUGCAAAAUUGCAGGGGUCUAAAACGACCUGAAUAUUUCAGAUCAAA
RNA 2: GGGAAUGGAUCCACAUCUACGAAUUCGUUUUUGAUCUGAAAUAUUCAGCAGUCUGCAGAUCGGAAGAGCACACGU
B11: target 3 insC 3' of 5,insU 3' of 3 (mixed)
RNA 1: CACCCGUGCAAAAUUGCAGGGGUCUAAAACGACCUGAAUAUUUCAGAUCAAA
RNA 2: GGGAAUGGAUCCACAUCUACGAAUUCGUUUUUGAUCUGAAAUAUUCACGGUUCUGCAGAUCGGAAGAGCACACGU
B12: target 3 insA 3' of 22,insC 3' of 3 (mixed)
RNA 1: CACCCGUGCAAAAUUGCAGGGGUCUAAAACGACCUGAAUAUUUCAGAUCAAA
RNA 2: GGGAAUGGAUCCACAUCUACGAAUUCGUUUAUUGAUCUGAAAUAUUCAGGCUCUGCAGAUCGGAAGAGCACACGU
B13: target 3 insA 3' of 10 (mixed)
RNA 1: CACCCGUGCAAAAUUGCAGGGGUCUAAAACGACCUGAAUAUUUCAGAUCAAA
RNA 2: GGGAAUGGAUCCACAUCUACGAAUUCGUUUUUGAUCUGAAAUAAUUCAGGUCUGCAGAUCGGAAGAGCACACGU
B14: target 3 insG 3' of 6,insC 3' of 3 (mixed)
RNA 1: CACCCGUGCAAAAUUGCAGGGGUCUAAAACGACCUGAAUAUUUCAGAUCAAA
RNA 2: GGGAAUGGAUCCACAUCUACGAAUUCGUUUUUGAUCUGAAAUAUUCGAGGCUCUGCAGAUCGGAAGAGCACACGU
B15: target 3 insU 3' of 3,insA 3' of 1 (mixed)
RNA 1: CACCCGUGCAAAAUUGCAGGGGUCUAAAACGACCUGAAUAUUUCAGAUCAAA
RNA 2: GGGAAUGGAUCCACAUCUACGAAUUCGUUUUUGAUCUGAAAUAUUCAGGUUCAUGCAGAUCGGAAGAGCACACGU
B16: target 3 insA 3' of 4,insG 3' of 2 (mixed)
RNA 1: CACCCGUGCAAAAUUGCAGGGGUCUAAAACGACCUGAAUAUUUCAGAUCAAA
RNA 2: GGGAAUGGAUCCACAUCUACGAAUUCGUUUUUGAUCUGAAAUAUUCAGAGUGCUGCAGAUCGGAAGAGCACACGU
B17: target 3 complement block 1-7 (mixed)
RNA 1: CACCCGUGCAAAAUUGCAGGGGUCUAAAACGACCUGAAUAUUUCAGAUCAAA
RNA 2: GGGAAUGGAUCCACAUCUACGAAUUCGUUUUUGAUCUGAAAUAUAGUCCAGUGCAGAUCGGAAGAGCACACGU
B18: target 3 C1U,U7G (mixed)
RNA 1: CACCCGUGCAAAAUUGCAGGGGUCUAAAACGACCUGAAUAUUUCAGAUCAAA
RNA 2: GGGAAUGGAUCCACAUCUACGAAUUCGUUUUUGAUCUGAAAUAUGCAGGUUUGCAGAUCGGAAGAGCACACGU
B19: target 3 insG 3' of 7,insA 3' of 3 (mixed)
RNA 1: CACCCGUGCAAAAUUGCAGGGGUCUAAAACGACCUGAAUAUUUCAGAUCAAA
RNA 2: GGGAAUGGAUCCACAUCUACGAAUUCGUUUUUGAUCUGAAAUAUUGCAGGAUCUGCAGAUCGGAAGAGCACACGU
B20: target 3 insA 3' of 7,insC 3' of 3 (mixed)
RNA 1: CACCCGUGCAAAAUUGCAGGGGUCUAAAACGACCUGAAUAUUUCAGAUCAAA
RNA 2: GGGAAUGGAUCCACAUCUACGAAUUCGUUUUUGAUCUGAAAUAUUACAGGCUCUGCAGAUCGGAAGAGCACACGU
B21: target 3 C1U,G4C (mixed)
RNA 1: CACCCGUGCAAAAUUGCAGGGGUCUAAAACGACCUGAAUAUUUCAGAUCAAA
RNA 2: GGGAAUGGAUCCACAUCUACGAAUUCGUUUUUGAUCUGAAAUAUUCACGUUUGCAGAUCGGAAGAGCACACGU
B22: target 3 U7G (mixed)
RNA 1: CACCCGUGCAAAAUUGCAGGGGUCUAAAACGACCUGAAUAUUUCAGAUCAAA
RNA 2: GGGAAUGGAUCCACAUCUACGAAUUCGUUUUUGAUCUGAAAUAUGCAGGUCUGCAGAUCGGAAGAGCACACGU
B23: target 3 insU 3' of 22,insA 3' of 4 (mixed)
RNA 1: CACCCGUGCAAAAUUGCAGGGGUCUAAAACGACCUGAAUAUUUCAGAUCAAA
RNA 2: GGGAAUGGAUCCACAUCUACGAAUUCGUUUUUUGAUCUGAAAUAUUCAGAGUCUGCAGAUCGGAAGAGCACACGU
B24: target 1 insC 3' of 18,insA 3' of 7 (mixed)
RNA 1: CACCCGUGCAAAAAUGCAGGGGUCUAAAACUGAGCGGAUAACCUCUCUAUGG
RNA 2: GGGAAUGGAUCCACAUCUACGAAUUCGUACCAUACGAGAGGUUAUCACGCUCACCGAGAUCGGAAGAGCACACGU
B25: target 1 insC 3' of 13,insA 3' of 13 (mixed)
RNA 1: CACCCGUGCAAAAAUGCAGGGGUCUAAAACUGAGCGGAUAACCUCUCUAUGG
RNA 2: GGGAAUGGAUCCACAUCUACGAAUUCGUACCAUAGAGAGCAGUUAUCCGCUCACCGAGAUCGGAAGAGCACACGU
B26: target 1 insC 3' of 8,insA 3' of 8 (mixed)
RNA 1: CACCCGUGCAAAAAUGCAGGGGUCUAAAACUGAGCGGAUAACCUCUCUAUGG
RNA 2: GGGAAUGGAUCCACAUCUACGAAUUCGUACCAUAGAGAGGUUAUCACCGCUCACCGAGAUCGGAAGAGCACACGU
B27: target 1 insU 3' of 14,insU 3' of 9 (mixed)
RNA 1: CACCCGUGCAAAAAUGCAGGGGUCUAAAACUGAGCGGAUAACCUCUCUAUGG
RNA 2: GGGAAUGGAUCCACAUCUACGAAUUCGUACCAUAGAGAUGGUUAUUCCGCUCACCGAGAUCGGAAGAGCACACGU

The Kd is the concentration at which binding is half-saturated.

For the data set, the target named is T1, EsCas13d, nuclease-dead. As to the kind of experiment: crRNA (strand 1, pre-loaded); Mg2+; 40 mM Tris-HCl pH 7.5, 150 mM NaCl, 6 mM MgCl2, 1 mM DTT, 0.1% Tween-20, 0.2 mg/ml BSA; 25 C; 10 min per concentration, then washed. The following applies: tags: His6-TwinStrep-SUMO cleaved; N-terminal SNAP kept (SNAP-Surface 488); label: 3' end held by stalled T7 RNA polymerase.
On to B1, for which the Kd was found to be 16.8 ± 3.25 nM.

Regarding B2, the Kd stood at 100 ± 33 nM.

Molecule B3 came in with a dissociation constant Kd of 37.4 ± 4.85 nM.

B4: the affinity, expressed as Kd, was 45.5 ± 11.5 nM.

As for B5, the Kd is 96 ± 24.5 nM.

Take B6: the affinity, expressed as Kd, was 20.4 ± 2.3 nM.

In the case of B7, the Kd was 8.75 ± 2.3 nM.

B8: the Kd came to 84.5 ± 20 nM.

B9 registered a dissociation constant (Kd) of 41.5 ± 4.5 nM.

Turning to B10, binding was characterised by a dissociation constant (Kd) of 21.8 ± 2.15 nM.

Regarding B11, the affinity, expressed as Kd, was 7.75 ± 0.6 nM.

Molecule B12 came in with a dissociation constant (Kd) of 15.1 ± 1.55 nM.

Molecule B13 showed a Kd of 55.5 ± 13 nM.

For B14, binding was characterised by a dissociation constant (Kd) of 17.5 ± 1.3 nM.

In turn, B15 showed a dissociation constant Kd of 76.5 ± 19.5 nM.

As to B16, the dissociation constant (Kd) amounted to 49 ± 7 nM.

For B17, the Kd worked out at 57 ± 8.5 nM.

Take B18: the Kd was around 40 nM.

Turning to B19, binding was characterised by a dissociation constant (Kd) of 38 ± 5.5 nM.

B20: the affinity, expressed as Kd, was 26.1 ± 2.35 nM.

B21 came in with a Kd of around 68.5 nM.

Regarding B22, binding was put at a Kd of 47 ± 8 nM.

With B23, the Kd was determined as 69.5 ± 15.5 nM.

Regarding B24, the Kd came out at 29 ± 1.6 nM.

The molecule B25 displayed a Kd of 17.2 ± 1.6 nM.

Turning to B26, the Kd worked out at 9.9 ± 0.5 nM.

Take B27: the affinity, expressed as Kd, was 52 ± 9 nM.
